# Results as given in paper PMC8473176.
# B1: his-AtHEN1 (recombinant full-length Arabidopsis HEN1) (enzyme)
# chain: MAGGGKHTPTPKAIIHQKFGAKASYTVEEVHDSSQSGCLGLAIPQKGPCLYRCHLQLPEFSVVSNVFKKKKDSEQSAAELALDKLGIRPQNDDLTVDEARDEIVGRIKYIFSDEFLSAEHPLGAHLRAALRRDGERCGSVPVSVIATVDAKINSRCKIINPSVESDPFLAISYVMKAAAKLADYIVASPHGLRRKNAYPSEIVEALATHVSDSLHSREVAAVYIPCIDEEVVELDTLYISSNRHYLDSIAERLGLKDGNQVMISRMFGKASCGSECRLYSEIPKKYLDNSSDASGTSNEDSSHIVKSRNARASYICGQDIHGDAILASVGYRWKSDDLDYDDVTVNSFYRICCGMSPNGIYKISRQAVIAAQLPFAFTTKSNWRGPLPREILGLFCHQHRLAEPILSSSTAPVKSLSDIFRSHKKLKVSGVDDANENLSRQKEDTPGLGHGFRCEVKIFTKSQDLVLECSPRKFYEKENDAIQNASLKALLWFSKFFADLDVDGEQSCDTDDDQDTKSSSPNVFAAPPILQKEHSSESKNTNVLSAEKRVQSITNGSVVSICYSLSLAVDPEYSSDGESPREDNESNEEMESEYSANCESSVELIESNEEIEFEVGTGSMNPHIESEVTQMTVGEYASFRMTPPDAAEALILAVGSDTVRIRSLLSERPCLNYNILLLGVKGPSEERMEAAFFKPPLSKQRVEYALKHIRESSASTLVDFGCGSGSLLDSLLDYPTSLQTIIGVDISPKGLARAAKMLHVKLNKEACNVKSATLYDGSILEFDSRLHDVDIGTCLEVIEHMEEDQACEFGEKVLSLFHPKLLIVSTPNYEFNTILQRSTPETQEENNSEPQLPKFRNHDHKFEWTREQFNQWASKLGKRHNYSVEFSGVGGSGEVEPGFASQIAIFRREASSVENVAESSMQPYKVIWEWKKEDVEKKKTDL
# Target: GST-HC-Pro^K (HC-Pro of turnip mosaic virus, FRNK motif mutated to FKNK) (turnip mosaic virus (TuMV))
# Experiment: pull-down; 2 μg bait (GST-HC-Pro^R or GST-HC-Pro^K) and 2 μg prey (his-AtHEN1) in 50 mM Tris-HCl pH 7.5, 100 mM NaCl, 0.2% glycerol, 0.6% Triton X-100, 0.5 mM β-mercaptoethanol; 25 °C, 2 h; Glutathione Sepharose 4B; blot with α-His or α-GST
binder,measurement,value
B1,fold pull-down signal,0.2 to 0.3 fold
